Assay results reported in patent publication US20230357429A1 (JANUX THERAPEUTICS, published 2023).
Substitutions are numbered along the chain they refer to. Names may count otherwise. Read-outs that look alike come from different tables or passages of the source. Blank lines part the entries; values can stand above or below the binder they belong to. Where no end group is shown, it is not given here.

Key:
[1] = target: T1, Peptide-8 (cysteine pairing not given here; also: biotinylated, site not given here); test: ELISA, Fab on captured biotin-peptide
T1 peptide: VDFCGLYHWPICYQ

[2] = target: T2, Peptide-62 (cysteine pairing not given here; also: biotinylated, site not given here); test: ELISA, Fab on captured biotin-peptide
T2 peptide: IDFCAVYKWPVCQV

[3] = target: T3, Peptide-41 (cysteine pairing not given here; also: biotinylated, site not given here); test: ELISA, Fab on captured biotin-peptide
T3 peptide: VDFCGLYHWPICYQVY

[4] = target: T4, Peptide-32 (cysteine pairing not given here; also: biotinylated, site not given here); test: ELISA, Fab on captured biotin-peptide
T4 peptide: PDFCYMYGWPICDS

[5] = target: T5, Peptide-39 (cysteine pairing not given here; also: biotinylated, site not given here); test: ELISA, Fab on captured biotin-peptide
T5 peptide: VDFCGLYHWPICYQVD

[6] = target: T6, Peptide-43 (cysteine pairing not given here; also: biotinylated, site not given here); test: ELISA, Fab on captured biotin-peptide
T6 peptide: VDFCALYHWPICYQ

[7] = target: T7, Peptide-42 (cysteine pairing not given here; also: biotinylated, site not given here); test: ELISA, Fab on captured biotin-peptide
T7 peptide: IDFCAMYHWPICDT

[8] = target: T8, Peptide-3 (cysteine pairing not given here; also: biotinylated, site not given here); test: ELISA, Fab on captured biotin-peptide
T8 peptide: IDFCMLYNWPICAG

[9] = target: T9, Peptide-37 (cysteine pairing not given here; also: biotinylated, site not given here); test: ELISA, Fab on captured biotin-peptide
T9 peptide: VDFCYLYNWPVCSK

[10] = target: T10, Peptide-35 (cysteine pairing not given here; also: biotinylated, site not given here); test: ELISA, Fab on captured biotin-peptide
T10 peptide: EDFCYWYQWPICSD

[11] = target: T11, Peptide-25 (cysteine pairing not given here; also: biotinylated (site not given here)); test: ELISA, Fab on captured biotin-peptide
T11 peptide: VDFCKIYSWPVCHQ

[12] = target: T12, Peptide-36 (cysteine pairing not given here; also: biotinylated, site not given here); test: ELISA, Fab on captured biotin-peptide
T12 peptide: VDFCYQYGWPICSR

[13] = target: T13, Peptide-63 (cysteine pairing not given here; also: biotinylated, site not given here); test: ELISA, Fab on captured biotin-peptide
T13 peptide: IDFCLIYNWPVCDT

[14] = target: T14, Peptide-40 (cysteine pairing not given here; also: biotinylated, site not given here); test: ELISA, Fab on captured biotin-peptide
T14 peptide: VDFCYLYSWPICTK

[15] = target: T15, Peptide-33 (cysteine pairing not given here; also: biotinylated, site not given here); test: ELISA, Fab on captured biotin-peptide
T15 peptide: PDFCYMYNWPVCVT

[16] = target: T16, Peptide-38 (cysteine pairing not given here; also: biotinylated, site not given here); test: ELISA, Fab on captured biotin-peptide
T16 peptide: VDFCSIYHWPVCYV

[17] = target: T17, Peptide-64 (cysteine pairing not given here; also: biotinylated, site not given here); test: ELISA, Fab on captured biotin-peptide
T17 peptide: PDFCAVYRWPICYQ

[18] = target: T18, Peptide-46 (cysteine pairing not given here; also: biotinylated, site not given here); test: ELISA, Fab on captured biotin-peptide
T18 peptide: VEFCAIYSWPICKI

[19] = target: T19, Peptide-52 (cysteine pairing not given here; also: biotinylated, site not given here); test: ELISA, Fab on captured biotin-peptide
T19 peptide: VDFCYQYAWPVCSTGD

[20] = target: T20, Peptide-31 (cysteine pairing not given here; also: biotinylated, site not given here); test: ELISA, Fab on captured biotin-peptide
T20 peptide: YSLVCVKNLYCWNL

[21] = target: T21, Peptide-6 (cysteine pairing not given here; also: biotinylated, site not given here); test: ELISA, Fab on captured biotin-peptide
T21 peptide: IDFCLIYNWPVCDT

[22] = target: T22, Peptide-4 (cysteine pairing not given here; also: biotinylated, site not given here); test: ELISA, Fab on captured biotin-peptide
T22 peptide: VDFCKIYAWPICGS

[23] = target: T23, Peptide-29 (cysteine pairing not given here; also: biotinylated, site not given here); test: ELISA, Fab on captured biotin-peptide
T23 peptide: SYLVCVKNVYCWTA

[24] = target: T24, Peptide-14 (cysteine pairing not given here; also: biotinylated (site not given here)); test: ELISA, Fab on captured biotin-peptide
T24 peptide: LDFCKIYDWPICHL

[25] = target: T25, Peptide-13 (cysteine pairing not given here; also: biotinylated (site not given here)); test: ELISA, Fab on captured biotin-peptide
T25 peptide: VDFCELYRWPICNS

[26] = target: T11, Peptide-25; test: ELISA, Fab on captured biotin-peptide
Description: Binding was measured in a standard ELISA format. […] Bound TBDs were detected using a standard horse radish peroxidase conjugate secondary antibody. The ELISA signal was plotted versus the log-scale concentration of TBD. The concentrations of TBD required to observe half maximal binding signal (EC₅₀s) were calculated using Graphpad Prism software.

[27] = target: T26, Peptide-5 (cysteine pairing not given here; also: biotinylated, site not given here); test: ELISA, Fab on captured biotin-peptide
T26 peptide: VDFCKLYNWPVCQT

[28] = target: T27, Peptide-10 (cysteine pairing not given here; also: biotinylated (site not given here)); test: ELISA, Fab on captured biotin-peptide
T27 peptide: IDFCAIYQWPVCRS

[29] = target: T28, Human TROP2 ECD (31-274 AA), biotinylated (human, UniProt P09758 31-274, biotinylated (site not stated)); test: ELISA, Fab on captured biotin-TROP2
T28 construct: captured on neutravidin plates; also called TROP2-biotin; Trop2-biotin
T28 sequence: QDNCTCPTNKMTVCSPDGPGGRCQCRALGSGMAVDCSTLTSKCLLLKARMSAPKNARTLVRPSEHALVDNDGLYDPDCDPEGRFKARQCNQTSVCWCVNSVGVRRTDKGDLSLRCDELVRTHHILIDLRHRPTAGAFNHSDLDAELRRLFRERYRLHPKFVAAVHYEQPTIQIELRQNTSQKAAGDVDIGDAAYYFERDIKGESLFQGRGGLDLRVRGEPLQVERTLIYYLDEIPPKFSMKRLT

[30] = target: T28, Human TROP2 ECD (31-274 AA), …; test: ELISA, Fab on captured biotin-TROP2; remark: listed apart in the source

B1: TBD-1 wt (Fab, V domains shown)
VH: QVQLQQSGSELKKPGASVKVSCKASGYTFTNYGMNWVKQAPGQGLKWMGWINTYTGEPTYTDDFKGRFAFSLDTSVSTAYLQISSLKADDTAVYFCARGGFGSSYWYFDVWGQGSLVTVSS
VL: DIQLTQSPSSLSASVGDRVSITCKASQDVSIAVAWYQQKPGKAPKLLIYSASYRYTGVPDRFSGSGSGTDFTLTISSLQPEDFAVYYCQQHYITPLTFGAGTKVEIKR
notes: Fab; the heavy chain entry is VH-CH1; also called wild-type anti-TROP2 Fab (hRS7); TROP2 Fab
EC50 [1]: 35.2 nM | EC50 [2]: 81.4 nM | EC50 [3]: 102 nM | EC50 [4]: 34.6 nM | EC50 [5]: 95.2 nM | EC50 [6]: 27.5 nM | EC50 [7]: 28.5 nM | EC50 [8]: 164 nM | EC50 [9]: 31.7 nM | EC50 [10]: 261 nM | EC50 [11]: 217 nM | EC50 [12]: 41.4 nM | EC50 [13]: 162 nM | EC50 [14]: 39.7 nM | EC50 [15]: 29.7 nM | EC50 [16]: 178 nM | EC50 [17]: 28.3 nM | EC50 [18]: 668 nM | EC50 [19]: 127 nM | EC50 [20]: 42.1 nM | EC50 [21]: 28.5 nM | EC50 [22]: 9.2 nM | EC50 [23]: 6.7 nM | EC50 [24]: 379 nM | EC50 [25]: 157 nM | EC50 [26]: 48.2 nM | EC50 [27]: 16.5 nM | EC50 [28]: 62.6 nM

B3: TBD-11 (HC R98A) (Fab, V domains shown)
VH: B1 VH with R98A
VL: B1 VL
notes: Fab; also called HC R98A mutant
EC50 [1]: 86.4 nM | EC50 [2]: 136 nM | EC50 [3]: 159 nM | EC50 [4]: 87.7 nM | EC50 [5]: 151 nM | EC50 [6]: 77.5 nM | EC50 [7]: 86.4 nM | EC50 [8]: 296 nM | EC50 [9]: 149 nM | EC50 [12]: 60.1 nM | EC50 [13]: 229 nM | EC50 [14]: 310 nM | EC50 [15]: 144 nM | EC50 [16]: 290 nM | EC50 [17]: 61.7 nM | EC50 [21]: 363 nM | EC50 [22]: 179 nM | EC50 [24]: 332 nM | EC50 [25]: 388 nM | EC50 [26]: > 1000 nM | EC50 [27]: 232 nM | EC50 [28]: 272 nM | EC50 [29]: 3.4 nM | EC50 [30]: 3.4 nM

The next binders have a lower EC50 [1] than those just listed; values first:

EC50 [1]: 12.9 nM | EC50 [2]: 14.3 nM | EC50 [3]: 47.2 nM | EC50 [4]: 27.1 nM | EC50 [5]: 32.7 nM | EC50 [6]: 12 nM | EC50 [7]: 13.8 nM | EC50 [8]: 30.8 nM | EC50 [9]: 27.3 nM | EC50 [10]: 331 nM | EC50 [11]: 42.3 nM | EC50 [12]: 27 nM | EC50 [13]: 39.7 nM | EC50 [14]: 45.8 nM | EC50 [15]: 22.9 nM | EC50 [16]: 26.1 nM | EC50 [17]: 11 nM | EC50 [21]: 24.9 nM | EC50 [22]: 12.7 nM | EC50 [23]: 23.4 nM | EC50 [24]: 53.3 nM | EC50 [25]: 22.6 nM | EC50 [26]: 48.4 nM | EC50 [27]: 15.6 nM | EC50 [28]: 15.2 nM | EC50 [29]: 4.2 nM
B5: TBD-21 (HC F108A) (Fab, V domains shown)
VH: B1 VH with F108A
VL: B1 VL
notes: Fab; also called HC F108A mutant

EC50 [1]: 8.5 nM | EC50 [2]: 5.1 nM | EC50 [3]: 41 nM | EC50 [4]: 20.1 nM | EC50 [5]: 32.1 nM | EC50 [6]: 7.2 nM | EC50 [7]: 5.7 nM | EC50 [8]: 18.3 nM | EC50 [9]: 9.3 nM | EC50 [10]: 131 nM | EC50 [11]: 10.9 nM | EC50 [12]: 23.8 nM | EC50 [13]: 9.5 nM | EC50 [14]: 30.4 nM | EC50 [15]: 9.6 nM | EC50 [16]: 9.8 nM | EC50 [17]: 6.4 nM | EC50 [18]: 102 nM | EC50 [19]: 39.3 nM | EC50 [20]: 791 nM | EC50 [21]: 15 nM | EC50 [22]: 15.3 nM | EC50 [23]: 43.8 nM | EC50 [24]: 145 nM | EC50 [25]: 21.4 nM | EC50 [26]: 38.3 nM | EC50 [27]: 9.9 nM | EC50 [28]: 8.5 nM | EC50 [29]: 0.3 nM | EC50 [30]: 0.3 nM
B4: TBD-6 (LC I93A) (Fab, V domains shown)
VH: B1 VH
VL: B1 VL with I93A
notes: Fab; also called LC I93A mutant

EC50 [1]: 8 nM | EC50 [2]: 9.2 nM | EC50 [3]: 28.9 nM | EC50 [4]: 35.1 nM | EC50 [5]: 16.4 nM | EC50 [6]: 4.9 nM | EC50 [7]: 5.5 nM | EC50 [8]: 23 nM | EC50 [9]: 19.5 nM | EC50 [10]: 215 nM | EC50 [11]: 35 nM | EC50 [12]: 30.2 nM | EC50 [13]: 30 nM | EC50 [14]: 27 nM | EC50 [15]: 24.1 nM | EC50 [16]: 31.8 nM | EC50 [17]: 3.8 nM | EC50 [20]: 164 nM | EC50 [21]: 10.1 nM | EC50 [22]: 6.5 nM | EC50 [23]: 24.8 nM | EC50 [24]: 71 nM | EC50 [25]: 10 nM | EC50 [26]: 38.8 nM | EC50 [27]: 5.4 nM | EC50 [28]: 6.5 nM | EC50 [29]: 0.3 nM
B2: TBD-17 (HC S104A) (Fab, V domains shown)
VH: B1 VH with S104A
VL: B1 VL
notes: Fab; also called HC S104A mutant
